Assay [1] has as its target GST-σ^GN45E (Bacillus subtilis) (UniProt P19940). Nature of the assay: pull-down; GST or GST-σ^G fusions on glutathione Sepharose beads; 100 nM purified CsfB-Strep II tag; 30 min at room temperature; washed three times in 200 mM NaCl, 10 mM Tris-HCl pH 8.0, 10% glycerol; immunoblot with anti-Strep II tag; densitometry, average of three experiments. (In general: In western blotting, separated proteins are transferred to a membrane and probed.)

The target of another assay is T1, GST-σ^G (Bacillus subtilis, UniProt P19940 1-260).
T1 construct: RNA polymerase sigma-G factor of Bacillus subtilis; coding region of sigG amplified with primers sigG2016D and sigG2964R from pMS45 and cloned into pGex4T-3; also called GST-σ^Gwt; GST-σ^G fusion protein (wt); not shown: GST, N-terminal, kept
T1 sequence (looked up): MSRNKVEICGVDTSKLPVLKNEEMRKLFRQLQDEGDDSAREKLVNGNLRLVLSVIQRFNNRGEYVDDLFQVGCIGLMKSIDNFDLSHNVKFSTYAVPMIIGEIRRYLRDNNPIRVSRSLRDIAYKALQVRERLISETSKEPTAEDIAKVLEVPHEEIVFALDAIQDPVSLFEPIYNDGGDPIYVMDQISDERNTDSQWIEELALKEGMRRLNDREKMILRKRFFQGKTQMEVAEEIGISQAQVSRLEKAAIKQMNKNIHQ
Described as above. The note with it: both partners purified.

Assay [2] deals with T2, GST-σ^GN45A (Bacillus subtilis, UniProt P19940 1-260, N45A).
T2 construct: RNA polymerase sigma-G factor of Bacillus subtilis; coding region of sigGN45A amplified from pJS4 and cloned into pGex4T-3; not shown: GST, N-terminal, kept
T2 sequence (looked up): T1 sequence (looked up) with N45A
The assay is described as above. To be noted: both partners purified.

Assay [3] has as its target T2, GST-σ^GN45A. As to the kind of experiment: pull-down; GST or GST-σ^G fusions on glutathione Sepharose beads; soluble extract of B. subtilis AH6608 (CsfB-GFP) 2 h after the onset of sporulation; 30 min at room temperature; washed three times in 200 mM NaCl, 10 mM Tris-HCl pH 8.0, 10% glycerol; immunoblot with anti-GFP and anti-SpoIIAB; densitometry, average of three experiments. The note with it: one partner purified.

The target in assay [4] is GST-σ^GN45E (Bacillus subtilis) (UniProt P19940). Described as above.

Changes are numbered by the printed parent chain.

B1: CsfB-Strep II tag (natural protein, Bacillus subtilis, UniProt P37534 1-64, looked up)
chain: MDETVKLNHTCVICDQEKNRGIHLYTKFICLDCERKVISTSTSDPDYAFYVKKLKSIHTPPLYS
notes: anti-sigma-G factor CsfB (Gin) of Bacillus subtilis; coding region of csfB amplified with primers csfB191D and csfBstrepR (which carries the Strep II tag) and cloned between NcoI and BamHI of pET16b; also called CsfB-Strep II-tagged protein; purified CsfB; source: E. coli BL21(DE3) grown in LB, purified (Strep-Tactin Sepharose); not shown: Strep II tag, C-terminal, kept
For the molecule B1, the efficiency of the pull-down relative to the wild type (× of the wild type) in assay [1] was 0.2. Also, the binding result in the assay with GST-σ^G is “binds”. Moreover, the “efficiency of the pull-down relative to the wild type” value in the assay with GST-σ^GN45A [2] was ~0.6 × the efficiency of the wild type.

B2: CsfB-GFP fusion (natural protein, Bacillus subtilis, UniProt P37534 1-64, looked up)
chain: B1 chain
notes: anti-sigma-G factor CsfB (Gin) of Bacillus subtilis, functional fusion to GFP; The construction of the csfB-gfp fusion stands in Text S1; source: B. subtilis AH6608 (csfB::km ΔsigG ΔamyE::csfB-gfp), soluble extract 2 h after the onset of sporulation in DSM
For B2, in the assay with GST-σ^GN45A [3], the “efficiency of the pull-down relative to the wild type” value is 0.7 × of the wild type. In addition, the efficiency of the pull-down relative to the wild type (× of the wild type) in assay [4] worked out at 0.4.

For the origin of these results see article PMC3174212, “A Negative Feedback Loop That Limits the Ectopic Activation of a Cell Type–Specific Sporulation Sigma Factor of Bacillus subtilis” (PLoS Genetics, 2011).
